Experimental data: patent US20110263454A1, “Methods of Identifying Functional Characteristics of Promoters, Transcription Modifying Proteins and Transcription Modulating Agents” (Salk Institute for Biological Studies, priority 2008, published 2011)

B1: RORg: RAR-related Orphan Receptor γ (NR1F3), cDNA driver (protein, UniProt P51449 1-518, looked up)
Nuclear receptor ROR-gamma: MDRAPQRQHRASRELLAAKKTHTSQIEVIPCKICGDKSSGIHYGVITCEGCKGFFRRSQRCNAAYSCTRQQNCPIDRTSRNRCQHCRLQKCLALGMSRDAVKFGRMSKKQRDSLHAEVQKQLQQRQQQQQEPVVKTPPAGAQGADTLTYTLGLPDGQLPLGSSPDLPEASACPPGLLKASGSGPSYSNNLAKAGLNGASCHLEYSPERGKAEGRESFYSTGSQLTPDRCGLRFEEHRHPGLGELGQGPDSYGSPSFRSTPEAPYASLTEIEHLVQSVCKSYRETCQLRLEDLLRQRSNIFSREEVTGYQRKSMWEMWERCAHHLTEAIQYVVEFAKRLSGFMELCQNDQIVLLKAGAMEVVLVRMCRAYNADNRTVFFEGKYGGMELFRALGCSELISSIFDFSHSLSALHFSEDEIALYTALVLINAHRPGLQEKRKVEQLQYNLELAFHHHLCKTHRQSILAKLPPKGKLRSLCSQHVERLQIFQHLHPIVVQAAFPPLYKELFSTETESPVGLSK
B2: HNF4a: Hepatocyte Nuclear Factor α (NR2A1), cDNA driver (protein, UniProt P41235 1-474, looked up)
Hepatocyte nuclear factor …: MRLSKTLVDMDMADYSAALDPAYTTLEFENVQVLTMGNDTSPSEGTNLNAPNSLGVSALCAICGDRATGKHYGASSCDGCKGFFRRSVRKNHMYSCRFSRQCVVDKDKRNQCRYCRLKKCFRAGMKKEAVQNERDRISTRRSSYEDSSLPSINALLQAEVLSRQITSPVSGINGDIRAKKIASIADVCESMKEQLLVLVEWAKYIPAFCELPLDDQVALLRAHAGEHLLLGATKRSMVFKDVLLLGNDYIVPRHCPELAEMSRVSIRILDELVLPFQELQIDDNEYAYLKAIIFFDPDAKGLSDPGKIKRLRSQVQVSLEDYINDRQYDSRGRFGELLLLLPTLQSITWQMIEQIQFIKLFGMAKIDNLLQEMLLGGSPSDAPHAHHPLHPHLMQEHMGTNVIVANTMPTHLSNGQMCEWPRPRGQAATPETPQPSPPGGSGSEPYKLLPGAVATIVKPLSAIPQPTITKQEVI
B3: RORa: RAR-related Orphan Receptor α (NR1F1), cDNA driver (protein, UniProt P35398 1-523, looked up)
Nuclear receptor ROR-alpha: MESAPAAPDPAASEPGSSGADAAAGSRETPLNQESARKSEPPAPVRRQSYSSTSRGISVTKKTHTSQIEIIPCKICGDKSSGIHYGVITCEGCKGFFRRSQQSNATYSCPRQKNCLIDRTSRNRCQHCRLQKCLAVGMSRDAVKFGRMSKKQRDSLYAEVQKHRMQQQQRDHQQQPGEAEPLTPTYNISANGLTELHDDLSNYIDGHTPEGSKADSAVSSFYLDIQPSPDQSGLDINGIKPEPICDYTPASGFFPYCSFTNGETSPTVSMAELEHLAQNISKSHLETCQYLREELQQITWQTFLQEEIENYQNKQREVMWQLCAIKITEAIQYVVEFAKRIDGFMELCQNDQIVLLKAGSLEVVFIRMCRAFDSQNNTVYFDGKYASPDVFKSLGCEDFISFVFEFGKSLCSMHLTEDEIALFSAFVLMSADRSWLQEKVKIEKLQQKIQLALQHVLQKNHREDGILTKLICKVSTLRALCGRHTEKLMAFKAIYPDIVRLHFPPLYKELFTSEFEPAMQIDG
B4: LXRb: Liver X Receptor β (NR1H2), cDNA driver (protein, UniProt P55055 1-460, looked up)
Oxysterols receptor LXR-beta: MSSPTTSSLDTPLPGNGPPQPGAPSSSPTVKEEGPEPWPGGPDPDVPGTDEASSACSTDWVIPDPEEEPERKRKKGPAPKMLGHELCRVCGDKASGFHYNVLSCEGCKGFFRRSVVRGGARRYACRGGGTCQMDAFMRRKCQQCRLRKCKEAGMREQCVLSEEQIRKKKIRKQQQESQSQSQSPVGPQGSSSSASGPGASPGGSEAGSQGSGEGEGVQLTAAQELMIQQLVAAQLQCNKRSFSDQPKVTPWPLGADPQSRDARQQRFAHFTELAIISVQEIVDFAKQVPGFLQLGREDQIALLKASTIEIMLLETARRYNHETECITFLKDFTYSKDDFHRAGLQVEFINPIFEFSRAMRRLGLDDAEYALLIAINIFSADRPNVQEPGRVEALQQPYVEALLSYTRIKRPQDQLRFPRMLMKLVSLRTLSSVHSEQVFALRLQDKKLPPLLSEIWDVHE

Legend:
hIRF7 promoter = assay: NHR-promoter luciferase screen, hIRF7 promoter; format: cell-based, human; conditions: for Normalized Luc. act., normalized to control / Luc. act., normalized to lacZ: IRF7 promoter reporter; for Normalized Luc. act., normalized to control: HR without or with its ligand, relative to control; for Luc. act., normalized to lacZ: hormone receptor (HR) without or with its ligand; for hIRF7 promoter reporter activity: transcription factor +/- ligand, control = 1.00
Description: (§1) The use, feasibility, and reproducibility of the functional NHR-promoter screen in a 48-well format have been tested validated. Briefly, there were co-expressed 50 ng of each NHR/NHR homodimer or NHR/RXR heterodimer with 100 ng promoter/luciferase construct and 50 ng of LacZ (as a control for transfection efficiency) in CV-1 cells using Fugene HD (Roche) as a transfection reagent (alternatively or additionally, a CMV-YFP construct can be used as a transfection control). Each of the nuclear hormone receptors that were used in these experiments was cloned into a pcDNA3.1 vector and comprised a C-terminally linked V5H6 tag. Twenty-four hours after transfection, appropriate ligands were added, where applicable, (see Table 5 for various ligands and concentrations and after 48 hrs, samples were assayed for luciferase and LacZ activity. To measure for luciferase activity 15 ul of sample was added to 30 ul of luciferase buffer (20 mM tricine, 1.07 mM MgCarbonate, 2.67 mM MgSulfate, 0.1 mM Naz-EDTA, 5 mM DTT, 5 mM ATP, 0.15 mg/ml CoA, 0.5 mM Luciferin), mixed briefly, and run in a Perkin Elmer Victor 5 luminometer. Thus, the functional NHR-promoter screen was used to observe the transcriptional activity of 29 promoters from various physiological pathways including inflammation, lipid and sugar metabolism, cholesterol transport, xenobiotic metabolism, and circadian rhythm.
(§2) The promoters that facilitate transcription of the indicated gene products that were tested using the protocols described herein are listed in the first row of the table. The nuclear hormone receptors and, where applicable, ligands that were assayed for their transcriptional effects on the promoters are listed in the first column of the table. The data represent the luciferase activity of each sample normalized to both the lacZ activity of that sample and to a control, e.g., no NHR or ligand, as customary in the art. As described previously, these normalizations allow the transcriptional activity of each reporter cell to be compared to other samples.
(§3) Tables 7-40 show the transcriptional effects of the hormone receptors, and, where applicable, ligands (orphan receptors are screened without ligand), on each individual promoter. […] The control data of each table are shown in their last rows.

mADRP promoter = assay: NHR-promoter luciferase screen, mADRP promoter; format: cell-based, mouse; conditions: for Luc. act., normalized to lacZ / Normalized Luc. act., normalized to control: ADRP promoter, HR/ligand component; for mADRP promoter reporter activity: transcription factor +/- ligand, control = 1.00
Description: as §1, §2, §3

mDio2 promoter = assay: NHR-promoter luciferase screen, mDio2 promoter; format: cell-based, mouse; conditions: for Luc. act., normalized to lacZ / Normalized Luc. act., normalized to control: Dio2, HR component without or with its ligand; for mDio2 promoter reporter activity: transcription factor +/- ligand, control = 1.00
Description: as §1, §2, §3

hIFNg promoter = assay: NHR-promoter luciferase screen, hIFNg promoter; format: cell-based, human; conditions: for Luc. act., normalized to lacZ / Normalized Luc. act., normalized to control: IFNg promoter, HR component without or with ligand; for hIFNg promoter reporter activity: transcription factor +/- ligand, control = 1.00
Description: as §1, §2, §3

SREBP1c promoter = assay: NHR-promoter luciferase screen, SREBP1c promoter; format: cell-based, mouse; conditions: for Luc. act., normalized to lacZ / Normalized Luc. act., normalized to control: SREBP1c promoter, HR component without or with ligand; for mSREBP1-c promoter reporter activity: transcription factor +/- ligand, control = 1.00
Description: as §1, §2, §3

hPPARg2 promoter = assay: NHR-promoter luciferase screen, hPPARg2 promoter; format: cell-based, human; conditions: for Luc. act., normalized to lacZ / Normalized Luc. act., normalized to control: PPARG2 promoter, hormone receptor with or without its ligand; for Normalized Luc. act., normalized to control: relative to control; for Results of assays of transcription factor (+/- ligand) with hPPARg2: Table 6d, luciferase activity relative to control (control = 1.00)
Description: as §1, §2, §3

| Molecule | Normalized Luc. act., normalized to control (hIRF7 promoter) | Luc. act., normalized to lacZ (hIRF7 promoter) | hIRF7 promoter reporter activity (hIRF7 promoter) | Luc. act., normalized to lacZ (mADRP promoter) | Normalized Luc. act., normalized to control (mADRP promoter) | mADRP promoter reporter activity (mADRP promoter) | Luc. act., normalized to lacZ (mDio2 promoter) | Normalized Luc. act., normalized to control (mDio2 promoter) | mDio2 promoter reporter activity (mDio2 promoter) | Luc. act., normalized to lacZ (hIFNg promoter) | Normalized Luc. act., normalized to control (hIFNg promoter) | hIFNg promoter reporter activity (hIFNg promoter) | Luc. act., normalized to lacZ (SREBP1c promoter) | Normalized Luc. act., normalized to control (SREBP1c promoter) | mSREBP1-c promoter reporter activity (SREBP1c promoter) | Luc. act., normalized to lacZ (hPPARg2 promoter) | Normalized Luc. act., normalized to control (hPPARg2 promoter) | Results of assays of transcription factor (+/- ligand) with hPPARg2 (hPPARg2 promoter) | regulation of the SREBP1c promoter (SREBP1c promoter; FIG. 2b, in words) |
| --- | --- | --- | --- | --- | --- | --- | --- | --- | --- | --- | --- | --- | --- | --- | --- | --- | --- | --- | --- |
| VDR: Vitamin D Receptor (NR1I1), cDNA driver | 1.1 | 30.2 | 1.15 | 766.6 | 1.5 | 1.54 | 23.7 | 1.5 | 1.51 | 16.06 | 1.0 | 1.01 | 460.1 | 1.4 | 1.43 | 2.1 | 1.0 | 1.03 | – |
| B1 | 1.7 | 44.4 | 1.69 | 929.8 | 1.9 | 1.87 | 58.7 | 3.7 | 3.74 | 17.9 | 1.1 | 1.12 | 644.8 | 2.0 | 2.00 | 19.2 | 9.6 | 9.59 | – |
| B2 | 1.4 | 36.0 | 1.36 | 729.1 | 1.5 | 1.47 | 33.6 | 2.1 | 2.14 | 8.7 | 0.5 | 0.55 | 263.6 | 0.8 | 0.82 | 2.0 | 1.0 | 1.02 | – |
| B3 | 1.5 | 39.9 | 1.51 | 976.2 | 2.0 | 1.96 | 47.2 | 3.0 | 3.01 | 8.8 | 0.6 | 0.55 | 410.8 | 1.3 | 1.28 | 8.4 | 4.2 | 4.19 | – |
| B4 | 1.7 | 45.1 | 1.71 | 1191.8 | 2.4 | 2.40 | 18.1 | 1.2 | 1.15 | 19.35 | 1.2 | 1.22 | 4020.7 | 12.5 | 12.48 | 2.4 | 1.2 | 1.19 | specific and strong activation |
